Article PMC7247208, “A cell suspension based uptake method to study high affinity glucosinolate transporters” (Plant Methods, 2020)

Columns and labels:
Conditions in all cases: pH 5, MSOT3 without nitrate salts, 1 h uptake, transport
[1] = substrate: C=CC/C(=N/OS(=O)(=O)O)S[C@@H]1O[C@H](CO)[C@@H](O)[C@H](O)[C@H]1O; test: uptake into CCL-1 cotton suspension cells, HPLC of desulfoglucosinolates, Michaelis-Menten fit; type: cell-based, Arabidopsis thaliana
[2] = substrate: C=CCC/C(=N\OS(=O)(=O)O)S[C@@H]1O[C@H](CO)[C@@H](O)[C@H](O)[C@H]1O; test: as above; type: cell-based, Arabidopsis thaliana
[3] = substrate: O=S(=O)(O)O/N=C(/Cc1ccc(O)cc1)S[C@@H]1O[C@H](CO)[C@@H](O)[C@H](O)[C@H]1O; test: cells, lysate or membranes

B1: AtGTR2 (Arabidopsis thaliana) (protein)
chain: MERKPLELESTDNHQNPSSAVYGGSVTAVDSVEEDVQNQKKVVYRGWKVMPFIIGNETFEKLGIIGTLSNLLVYLTAVFNLKSITAATIINAFSGTINFGTFVAAFLCDTYFGRYKTLSVAVIACFLGSFVILLTAAVPQLHPAACGTAADSICNGPSGGQIAFLLMGLGFLVVGAGGIRPCNLAFGADQFNPKSESGKRGIDSFFNWYFFTFTFAQILSLTLVVYVQSNVSWTIGLTIPAVLMFLACLIFFAGDKLYVKIKASGSPLAGIAQVIAVAIKKRGLKPAKQPWLNLYNYYPPKYANSKLKYTDQFRFLDKAAILTPEDKLQPDGKPADPWKLCTMQQVEEVKCIVRVLPIWFASSIYYLTITQQMTYPVFQALQSDRRLGSGGFVIPAATYVVFLMTGMTVFIVVYDRVLVPTMRRITGLDTGITLLQRIGTGIFFATASLVVAGFVEERRRTFALTKPTLGMAPRKGEISSMSAMWLIPQLSLAGVAEAFAAIGQMEFYYKQFPENMRSFAGSIFYVGGGVSSYLGSFLIATVHRTTQNSSGGNWLAEDLNKGRLDLFYFMIAGILAVNFAYFLVMSRWYRYKGSDDEVTTYETNENIIKQQDKNVA
notes: full-length CDS from Col-0 leaf cDNA, untagged, pEarleyGate100 (CaMV35S), stably expressed in cotton CCL-1 cells; C-terminal YFP fusion only for localization
For B1, the Km [1] was 436.7 ± 154 µM, the Vmax [1] was 4.6e-06 µmol/min/mg and the Km [2] was 153.3 ± 59 µM. The Vmax [2] was 2.9e-06 µmol/min/mg, the Km [3] was 166.7 ± 40 µM and the Vmax [3] was 1.2e-06 µmol/min/mg.

B2: AtGTR1 (Arabidopsis thaliana) (protein)
chain: MKSRVILNHRDRRDKNHNNNNTNHYTQVDTMERKPLEVEPSTTTTNTDVVDSFEEEQRKIVYRGWKVMPFIIGNETFEKLGIIGTLSNLLVYLTSVFNLKSYTAATIINAFSGTINFGTFIAAFLCDTYFGRYKTLSVAVIACFLGSFVILLTAAIPSLHPVACGNKISCEGPSVGQILFLLMGLGFLVVGAGGIRPCNLAFGADQFNPKSESGKKGINSFFNWYFFTFTFAQIISLTAVVYIQSNVSWTIGLIIPVALMFLACVIFFAGDRLYVKVKASGSPLAGIARVIAAAIKKRGLKPVKQPWVNLYNHIPSNYANTTLKYTDQFRFLDKAAIMTPEEKLNSDGTASDPWKLCTLQQVEEVKCIVRVIPIWFASTIYYLAITIQMTYPVFQALQSDRRLGSGGFRIPAATYVVFLMTGMTVFIIFYDRVLVPSLRRVTGLETGISLLQRIGAGFTFAIMSLLVSGFIEERRRNFALTKPTLGMAPRTGEISSMSALWLIPQLTLAGIAEAFAAIGQMEFYYKQFPENMKSFAGSIFYVGAGVSSYLASFLISTVHRTTAHSPSGNWLAEDLNKAKLDYFYFMLTGLMVVNMAYFLLMARWYRYKGGNDEDITEIETNEEETKQQQLQDKNSV
notes: as for B1
B2 was tested, and the Km [1] was 117.9 ± 44 µM, the Vmax [1] was 5e-07 µmol/min/mg and the Km [2] was 279.1 ± 109 µM. For the same protein, the Vmax [2] was 3.4e-06 µmol/min/mg, the Km [3] was 104.5 ± 56 µM and the Vmax [3] was 5e-07 µmol/min/mg.
